Values joined by “and” are separate entries in the source; they are usually repeats but may differ in a detail not shown here. Equal entries are not always repeated.
B1: Parvalbumin alpha, P02625 (parent)
chain: MSMTDLLSAEDIKKAIGAFTAADSFDHKKFFQMVGLKKKSADDVKKVFHILDKDKSGFIEEDELGSILKGFSSDARDLSAKETKTLMAAGDKDGDGKIGVEEFSTLVAES

Variants of: B1
Details: Rattus norvegicus, pH 7.4, Thermal, DSC, sodium phosphate 10 mM, NaCl 0.20 M, structure 1RTP, whole UniProt chain shown

Variant	ddG of mutation (higher = less stable) (44.2 °C) [kcal/mol]	heat capacity change of unfolding (44.2 °C) [kcal/mol/K]	ddG of mutation (higher = less stable) (45.8 °C) [kcal/mol]	heat capacity change of unfolding (45.8 °C) [kcal/mol/K]	unfolding enthalpy (calorimetric)	Tm [°C]	change of melting temperature, mutant - wild type (higher = more stable) [°C]
A22P	-0.95	1.4	1.92	1.4	52 kcal/mol and 63 kcal/mol	–	–
A22P H27P	–	–	0.5	1.4	62 kcal/mol	43.6	-2.2
A22P K81S	–	–	-0.45	1.4	75 kcal/mol	47.8	2
H27P	–	–	-1.25	1.4	80 kcal/mol	51.4	5.6
K81S	–	–	0.29	1.4	71 kcal/mol	44.5	-1.3

From FireProtDB (doi:10.1021/bi034721x)
